Test system: AgrA L171A (Staphylococcus aureus SH1000)
Experiment: EMSA
Conditions: EMSA: 10 mM HEPES pH 7.6, 50 mM KCl, 1 mM EDTA, 2 mM DTT, 0.5% Triton X-100, 5% glycerol, 37 C; 1 uM AgrA (pre-incubated at 3 uM with 50 mM acetyl phosphate …)

“agr operon intergenic region P2-P3 probe” gave a binding signal (% of wild-type binding) of 50.

Reference: paper PMC4227749
